According to patent publication US7326541 (TARGANTA THERAPEUTICS, dated 2008):
Where no end group is shown, it is not given here.

T1: STAAU_R9-35 (amino acids 35 to 599 of SEQ ID NO: 2) in pGADT7, Gal4 activation domain fusion (yeast; Staphylococcus aureus, UniProt Q5HFJ8 35-599)
T1 sequence: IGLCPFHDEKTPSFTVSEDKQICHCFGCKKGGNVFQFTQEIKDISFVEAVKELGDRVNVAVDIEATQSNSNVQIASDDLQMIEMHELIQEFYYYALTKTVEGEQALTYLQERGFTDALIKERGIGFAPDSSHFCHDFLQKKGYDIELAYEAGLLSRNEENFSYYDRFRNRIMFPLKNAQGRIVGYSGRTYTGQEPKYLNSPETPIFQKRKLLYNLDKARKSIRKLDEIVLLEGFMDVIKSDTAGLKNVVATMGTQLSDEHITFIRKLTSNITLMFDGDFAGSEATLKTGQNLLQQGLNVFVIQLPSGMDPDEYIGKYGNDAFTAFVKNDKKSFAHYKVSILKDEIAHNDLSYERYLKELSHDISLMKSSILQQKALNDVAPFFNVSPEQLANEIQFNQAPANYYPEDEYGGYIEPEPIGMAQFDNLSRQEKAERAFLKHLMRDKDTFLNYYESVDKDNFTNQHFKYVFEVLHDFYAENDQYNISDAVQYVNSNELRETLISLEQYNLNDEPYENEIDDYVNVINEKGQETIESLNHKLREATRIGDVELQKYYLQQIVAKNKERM

T2: GST/STAAU_R9-561-599 fusion protein from pGEX-6PK_STAAU_R9-561-599 (Staphylococcus aureus)
T2 construct: not shown: N-terminal GST tag encoded by pGEX-6P1 (Pharmacia Amersham Biotech); PreScission protease cleavage site, HMK phosphorylation site and cloning-site residues of pGEX-6PK
T2 chain: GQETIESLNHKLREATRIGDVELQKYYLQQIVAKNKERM

T3: GST/96ORF78 fusion protein from pGEX-6PK 96ORF078 (Staphylococcus aureus bacteriophage 96)
T3 construct: immobilized on nitrocellulose after SDS-PAGE, denatured and renatured; also called GST/960RF78; not shown: N-terminal GST tag encoded by pGEX-6P1 (Pharmacia Amersham Biotech); PreScission protease cleavage site and heart muscle kinase (HMK) phosphorylation site of pGEX-6PK (encoded by oligonucle)
T3 chain: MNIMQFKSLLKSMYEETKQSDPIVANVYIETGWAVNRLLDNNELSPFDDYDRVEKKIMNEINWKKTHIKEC

B1: 96 ORF 78 fused to the carboxyl terminus of the yeast Gal4 DNA binding domain (pGBK 96ORF78) (other)
chain: MKLLSSIEQACDICRLKKLKCSKEKPKCAKCLKNNWECRYSPKTKRSPLTRAHLTEVESRLERLEQLFLLIFPREDLDMILKMDSLQDIKALLTGLFVQDNVNKDAVTDRLASVETDMPLTLRQHRISATSSSEESSNKGQRQLTVSMNIMQFKSLLKSMYEETKQSDPIVANVYIETGWAVNRLLDNNELSPFDDYDRVEKKIMNEINWKKTHIKEC
B2: 96 ORF 78 fused to the yeast Gal4 activation domain (pGADT7) (other)
chain: T3 chain
B3: GST-cleaved 96 ORF 78 polypeptide (from pGEX-6PK 96ORF078) (other)
chain: T3 chain
modifications: labelled with [^32P] at the heart muscle kinase phosphate acceptor site when used as probe
notes: also called [^32P]-96 ORF 78; purified 96 ORF 78 protein; not shown: vector residues left after PreScission cleavage, with the HMK phosphorylation site of pGEX-6PK
B4: GST-cleaved STAAU_R9-561-599 (peptide)
chain: T2 chain
modifications: not fully specified; also: labelled with [32P] at the HMK phosphate acceptor site when used as probe
notes: not shown: vector residues left after PreScission cleavage, with the HMK phosphorylation site of pGEX-6PK
B5: STAAU_R9 561 599 (amino acids 561-599 of STAAU_R9, SEQ ID NO: 6) in pGADT7, Gal4 activation domain fusion (other)
chain: T2 chain
notes: Yeast two-hybrid construct
B6: Lamin C control of the yeast two-hybrid system (pGBKLaminC) (other)
chain: MKLLSSIEQACDICRLKKLKCSKEKPKCAKCLKNNWECRYSPKTKRSPLTRAHLTEVESRLERLEQLFLLIFPREDLDMILKMDSLQDIKALLTGLFVQDNVNKDAVTDRLASVETDMPLTLRQHRISATSSSEESSNKGQRQLTVSSEEVVSREVSGIKAAYEAELGDARKTLDSVAKERARLQLELSKVREEFKELKARNTKKEGDLIAAQARLKDLEALLNSKEAALSTALSEKRTLEGELHDLRGQVAKLEAALGEAKKQLQDEMLRRVDAENRLQTMKEELDFQKNIYSEELRETKRRHETRLVEID
notes: also called pGBKT7LaminC

Columns and labels:
[1] = target: T1, STAAU_R9-35 (amino acids 35 to 599 of …); experiment: cell-based or functional assay
[2] = target: STAAU_R9-35 (amino acids 35 to 599 of SEQ ID NO: 2) in pGBKT7, Gal4 DNA binding domain fusion (yeast; Staphylococcus aureus, UniProt P04386 1-147); experiment: cell-based or functional assay
[3] = target: B6; experiment: yeast two-hybrid, growth on THAL minus medium
[4] = target: T2, GST/STAAU_R9-561-599 fusion protein …; experiment: affinity blotting (Far western), 32P-labelled probe on renatured blotted protein
[5] = target: B4; experiment: as above
[6] = target: T4, GST (glutathione-S-transferase), negative control (UniProt P08515 1-218 = GST); experiment: as above
T4 construct: also called purified GST protein
T4 sequence (P08515 whole entry): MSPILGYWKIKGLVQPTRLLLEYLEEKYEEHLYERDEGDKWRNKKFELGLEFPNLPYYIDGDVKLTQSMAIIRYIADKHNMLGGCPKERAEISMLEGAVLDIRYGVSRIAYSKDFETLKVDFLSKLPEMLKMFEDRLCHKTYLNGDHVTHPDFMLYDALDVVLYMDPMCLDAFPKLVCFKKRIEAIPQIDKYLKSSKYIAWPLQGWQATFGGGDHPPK

[7] = target: T3, GST/96ORF78 fusion protein from …; experiment: as above
[8] = target: B3; experiment: as above
[9] = target: B1; experiment: yeast two-hybrid, growth on THAL minus medium
[10] = target: T1, STAAU_R9-35 (amino acids 35 to 599 of …); experiment: yeast two-hybrid, growth on THAL minus medium

## B1
[1]
  β-galactosidase activity: 10 fold

## B2
[2]
  β-galactosidase activity: 10 fold
[3]
  binding result: no binding

## B3
[4]
  binding result: binds
[5]
  binding result: binds
[6]
  binding result: no binding

## B4
[7]
  binding result: binds
[8]
  binding result: binds
[6]
  binding result: no binding

## B5
[9]
  binding result: binds

## B6
[10]
  binding result: no binding
